Consider three molecules from patent publication US20240116985A1 (published 2024).

The target in experiment [1] is T1, beta-catenin in DLD1 TCF/LEF luciferase reporter cells (UniProt P35222 1-781).
T1 sequence (looked up): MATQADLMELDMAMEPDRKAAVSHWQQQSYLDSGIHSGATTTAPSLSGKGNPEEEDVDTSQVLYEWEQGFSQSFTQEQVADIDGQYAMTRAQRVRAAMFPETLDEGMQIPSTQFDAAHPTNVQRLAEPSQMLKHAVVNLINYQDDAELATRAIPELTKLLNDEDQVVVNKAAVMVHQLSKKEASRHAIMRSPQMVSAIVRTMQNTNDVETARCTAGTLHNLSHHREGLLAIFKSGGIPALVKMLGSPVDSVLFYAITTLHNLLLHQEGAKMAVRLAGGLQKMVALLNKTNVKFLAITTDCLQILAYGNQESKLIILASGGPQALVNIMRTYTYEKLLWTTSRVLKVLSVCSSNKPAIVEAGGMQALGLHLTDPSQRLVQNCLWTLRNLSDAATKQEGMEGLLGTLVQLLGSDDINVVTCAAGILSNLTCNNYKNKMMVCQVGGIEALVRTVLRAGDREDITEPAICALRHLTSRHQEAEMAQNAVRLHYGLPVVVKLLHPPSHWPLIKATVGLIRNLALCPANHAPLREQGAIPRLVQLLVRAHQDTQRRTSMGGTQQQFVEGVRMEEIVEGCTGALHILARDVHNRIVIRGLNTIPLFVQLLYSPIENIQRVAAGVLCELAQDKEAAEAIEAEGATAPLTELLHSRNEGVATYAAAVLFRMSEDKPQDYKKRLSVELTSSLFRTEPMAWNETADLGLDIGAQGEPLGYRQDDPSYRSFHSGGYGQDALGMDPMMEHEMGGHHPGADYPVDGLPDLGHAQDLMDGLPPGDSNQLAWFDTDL
As to the kind of experiment: cell-based or functional assay.

Experiment [2] addresses T2, beta-catenin in DLD1 TCF/LEF luciferase reporter cells (Homo sapiens (Human), UniProt P35222 1-781).
T2 sequence: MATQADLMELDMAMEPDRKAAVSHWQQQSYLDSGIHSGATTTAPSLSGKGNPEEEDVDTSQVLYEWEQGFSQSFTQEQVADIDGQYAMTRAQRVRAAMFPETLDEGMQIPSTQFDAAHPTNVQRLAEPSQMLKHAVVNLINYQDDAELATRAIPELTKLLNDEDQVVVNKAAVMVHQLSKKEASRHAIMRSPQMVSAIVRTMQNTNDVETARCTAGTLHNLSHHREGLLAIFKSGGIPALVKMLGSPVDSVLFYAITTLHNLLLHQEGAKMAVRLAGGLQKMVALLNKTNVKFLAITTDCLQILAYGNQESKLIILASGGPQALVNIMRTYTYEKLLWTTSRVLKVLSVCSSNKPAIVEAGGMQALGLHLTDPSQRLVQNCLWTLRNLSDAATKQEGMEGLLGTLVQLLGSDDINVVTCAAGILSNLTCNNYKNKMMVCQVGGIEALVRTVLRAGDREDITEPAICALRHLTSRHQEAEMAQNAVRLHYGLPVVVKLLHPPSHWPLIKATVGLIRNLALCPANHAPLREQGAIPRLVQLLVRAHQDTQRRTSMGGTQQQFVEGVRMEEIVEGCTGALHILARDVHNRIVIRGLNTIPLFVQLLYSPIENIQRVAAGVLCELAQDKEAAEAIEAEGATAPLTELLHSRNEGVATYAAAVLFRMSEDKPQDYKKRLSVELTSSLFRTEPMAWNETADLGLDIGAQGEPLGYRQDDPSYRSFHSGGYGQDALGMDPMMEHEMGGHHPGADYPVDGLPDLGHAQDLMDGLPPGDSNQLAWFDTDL
As to the kind of experiment: cell-based or functional assay.

A further experiment deals with T3, B-cat-Halo (UniProt P35222 1-781, HaloTag NanoBRET 618 Ligand bound in the assay).
T3 construct: Transfected into HEK293 cells for the NanoBRET assay; also called beta-catenin HaloTag NanoBRET construct; not shown: HaloTag
T3 sequence (looked up): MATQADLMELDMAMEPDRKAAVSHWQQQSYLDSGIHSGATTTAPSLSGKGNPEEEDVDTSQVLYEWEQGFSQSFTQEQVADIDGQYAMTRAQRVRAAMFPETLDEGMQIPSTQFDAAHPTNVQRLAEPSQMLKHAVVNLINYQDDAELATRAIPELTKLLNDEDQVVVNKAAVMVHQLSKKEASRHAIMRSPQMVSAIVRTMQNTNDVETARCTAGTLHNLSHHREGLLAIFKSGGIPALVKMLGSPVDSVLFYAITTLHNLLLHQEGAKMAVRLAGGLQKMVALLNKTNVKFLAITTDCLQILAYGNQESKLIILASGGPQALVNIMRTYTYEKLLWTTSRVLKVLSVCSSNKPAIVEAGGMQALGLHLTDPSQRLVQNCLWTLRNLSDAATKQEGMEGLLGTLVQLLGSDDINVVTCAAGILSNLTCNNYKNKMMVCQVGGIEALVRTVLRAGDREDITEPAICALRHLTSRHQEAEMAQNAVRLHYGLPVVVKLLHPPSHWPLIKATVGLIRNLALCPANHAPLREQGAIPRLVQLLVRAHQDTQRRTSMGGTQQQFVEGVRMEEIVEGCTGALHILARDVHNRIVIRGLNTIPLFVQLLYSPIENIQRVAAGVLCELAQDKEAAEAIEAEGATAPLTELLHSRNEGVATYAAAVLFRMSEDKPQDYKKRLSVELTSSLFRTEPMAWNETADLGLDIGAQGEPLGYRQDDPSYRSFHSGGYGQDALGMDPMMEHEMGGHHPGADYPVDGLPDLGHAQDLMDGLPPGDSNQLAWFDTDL
As to the kind of experiment: NanoBRET Abs IC50 in HEK293 cells; B-cat-Halo, competitor TCF4-Luc. A general note: Bioluminescence resonance energy transfer reports proximity on the nanometre scale.

Experiment [3] concerns the target T4, full-length beta-Catenin (Uniprot ID P35222) (Homo sapiens (Human), UniProt P35222 1-781).
T4 construct: also called bCat; B-Catenin
T4 sequence: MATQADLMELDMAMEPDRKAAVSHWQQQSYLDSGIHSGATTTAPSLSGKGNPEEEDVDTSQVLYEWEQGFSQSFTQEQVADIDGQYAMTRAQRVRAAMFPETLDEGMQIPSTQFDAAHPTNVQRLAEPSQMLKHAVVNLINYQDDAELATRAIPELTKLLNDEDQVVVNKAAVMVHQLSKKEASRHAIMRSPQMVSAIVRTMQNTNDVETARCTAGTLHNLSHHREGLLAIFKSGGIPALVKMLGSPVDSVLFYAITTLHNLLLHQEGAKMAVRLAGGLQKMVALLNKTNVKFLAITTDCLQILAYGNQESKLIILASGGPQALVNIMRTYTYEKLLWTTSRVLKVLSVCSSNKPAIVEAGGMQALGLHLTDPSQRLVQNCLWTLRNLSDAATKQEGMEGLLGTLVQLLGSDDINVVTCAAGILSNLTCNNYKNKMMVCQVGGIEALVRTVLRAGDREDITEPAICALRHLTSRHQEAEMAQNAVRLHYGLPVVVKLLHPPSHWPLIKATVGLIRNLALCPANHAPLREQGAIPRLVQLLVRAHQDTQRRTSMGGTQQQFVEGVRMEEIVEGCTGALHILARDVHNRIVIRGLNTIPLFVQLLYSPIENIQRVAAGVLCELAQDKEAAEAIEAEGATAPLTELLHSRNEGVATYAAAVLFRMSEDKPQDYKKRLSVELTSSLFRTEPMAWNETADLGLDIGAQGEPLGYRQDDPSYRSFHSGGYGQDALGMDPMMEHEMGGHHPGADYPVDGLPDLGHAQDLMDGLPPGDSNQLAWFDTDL
As to the kind of experiment: fluorescence polarization competition; full-length beta-catenin, competitor 5FAM-TCF4(10-53) probe. The essentials:
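Fluorescence polarization was read in duplicate after the plate sat 60 minutes at 20° C. shielded from light. Values come from fitting to a 1:1 binding model with hill slope.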
For orientation: In fluorescence polarisation assays a small probe gives low polarisation when free and higher when bound to something large.

Starred links: 1 amine or outer side, 2 acyl side, 3 side chain; linkers in the order of their positions; H or OH if unused. Positions of bridges follow the written chain, without caps; N, C: chain ends. Non-standard residues stand in square brackets, D forms with d. Primed or numbered codes have the meaning given here. PyrS2″ = (S)-3-amino-1-((pent-4-en-1-yloxy)carbonyl)pyrrolidine-3-carboxylic acid (stapling residue), C=CCCCOC(=O)N1CC[C@@](N[*:1])(C(=O)[*:2])C1; B5(4) = 2,2-bis(4-pentenyl)glycine = 2-amino-2-(pent-4-en-1-yl)hept-6-enoic acid (stitching residue), C=CCCCC(CCCC=C)(N[*:1])C(=O)[*:2]; TfeGA = (S)-2-amino-3-((carboxymethyl)(2,2,2-trifluoroethyl)amino)propanoic acid, O=C([C@H](CN(CC(=O)[*:3])CC(F)(F)F)N[*:1])[*:2]; B5(3) = 2,2-bis(4-pentenyl)glycine (stitching residue), C=CCCCC(CCCC=C)(N[*:1])C(=O)[*:2]; Phe(2-Cl) = N[C@@H](Cc1ccccc1Cl)C(=O)O; Bta = N[C@@H](Cc1csc2ccccc12)C(=O)O; αAllylPro = C=CC[C@@]1(C(=O)O)CCCN1; tBuAla = CC(C)(C)C[C@H](N)C(=O)O; Thr(ol) = C[C@@H](O)[C@H](N)CO; hSer = N[C@@H](CCO)C(=O)O

B1: I-993 (peptide)
peptide: Ac-[αAllylPro]D[tBuAla][B5(3)]D[TfeGA]AAF[hSer][PyrS2″][Phe(2-Cl)][Bta][hSer]-NH2
modifications: staple 1-4, 4-11
Take B1: the “DLD1 reporter assay Abs IC50” value in experiment [1] was determined as 4.4 µM.

B2: I-1245 (peptide)
peptide: Ac-[αAllylPro]D[tBuAla][B5(4)]DDAAFT[PyrS2″][Phe(2-Cl)][Bta][Thr(ol)]
modifications: staple 1-4, 4-11
Take B2: in experiment [2], the “DLD1 4% Abs IC50” value is 4.1 µM.

B3: I-730 (peptide)
peptide: XDLXDEAAFNXFXQA
modifications: not fully specified; N-terminal Ac; C-terminal NH2; PL3 at 1, B5 at 4, S8 at 11, BztA at 13; stapled PL3-B5 and B5-S8 by olefin metathesis
notes: Stapled peptide; also called Ac-PL3-Asp-Leu-B5-Asp-Glu-Ala-Ala-Phe-Asn-S8-Phe-BztA-Gln-Ala-NH2
By IC50 is commonly meant the midpoint of a concentration-inhibition curve. Read a low IC50 as greater potency in that assay. As to B3, the IC50 with B-cat-Halo is 11.2 µM; in experiment [3], 0.035 µM.
